# B1: murine GATA2 finger region containing the NF and CF domains (289 aa to 480 aa), wild type, MBP-fused or GST-fused (domain or fragment)
# chain: not shown
# notes: GATA2, murine, finger region containing the NF and CF domains, residues 289-480; Two differently tagged copies of the same stretch were used; Each copy carries ONE carrier: MBP-fused (bait on amylose beads) or GST-fused (prey in a1, bait on glutathione beads in a2); They are kept as one molecule because the protein is tested against itself; also called G2^WT; MBP-fused G2^WT
# B2: murine GATA2 finger region (289 aa to 480 aa) with R398W, GST-fused or MBP-fused (domain or fragment)
# chain: not shown
# notes: GATA2, murine, finger region containing the NF and CF domains, residues 289-480, with the patient mutation R398W; Each copy carries ONE carrier: GST-fused in a1 (prey), MBP-fused in a2 (prey); The mutation corresponds to a human germline GATA2 mutation found in patients; also called G2^R398W; GST-fused G2^R398W
# B3: murine GATA2 finger region (289 aa to 480 aa) with T354M, GST-fused or MBP-fused (domain or fragment)
# chain: not shown
# notes: GATA2, murine, finger region containing the NF and CF domains, residues 289-480, with the patient mutation T354M; Each copy carries ONE carrier: GST-fused in a1 (prey), MBP-fused in a2 (prey); The mutation is a germline GATA2 mutation found in patients; also called G2^T354M; GST-fused G2^T354M
# Tests used:
# [1] = biological target: the molecule itself; test: pull-down; recombinant MBP-fused bait mixed with GST-fused prey in binding buffer at room temperature; complexes purified with amylose magnetic beads; immunoblot with anti-GST and anti-MBP
# [2] = biological target: B1; test: as above; conditions: both partners purified
binding result [2],Binder,binding result [1]
,B1,binds
binds,B2,
binds,B3,

# — PMC9018821, “Heterozygous variants in GATA2 contribute to DCML deficiency in mice by disrupting tandem protein binding” (Communications Biology, 2022)
